According to US8933021B2, “Insulin derivative” (Novo Nordisk A/S, priority 2006, dated 2015):

Experiments:
[1] = target: human insulin receptor (Homo sapiens, UniProt P06213); assay: Insulin receptor binding, SPA antibody capture assay
Protocol: SPA-PVT antibody-binding beads, anti-mouse reagent (Amersham Biosciences, Cat No. PRNQ0017) were mixed with 25 ml of binding buffer (100 mM HEPES pH 7.8; 100 mM sodium chloride, 10 mM MgSO4, 0.025% Tween-20). […] A total of 100 μl was then added and a dilution series is made from appropriate samples. To the dilution series was then added 100 μl of reagent mix and the samples were incubated for 16 hours while gently shaken. The phases were the then separated by centrifugation for 1 min and the plates counted in a Topcounter. The binding data were fitted using the nonlinear regression algorithm in the GraphPad Prism 2.01 (GraphPad Software, San Diego, Calif.).

[2] = Hydrophobicity (hydrophobic index k'rel) relative to human insulin by isocratic RP-HPLC; type: physicochemical
Protocol: The elution was monitored by following the UV absorption of the eluate at 214 nm. Void time, t0, was found by injecting 0.1 mM sodium nitrate.

[3] = Self-association by size exclusion chromatography (SEC), Kav; type: physicochemical
Protocol: The ability of the insulin derivatives of the invention to self-associate into large, but soluble complexes is analysed using SEC (size exclusion chromatography):
The following equation is used to determine the Kav for the derivative: Kav=(t−t0)/(Vt/(f+td−t0)) Where t is the retention time for a given peak, t0 is the retention time for Blue dextran, Vt is the total column volume (here 2.4 ml), f is the flow (here 0.04 ml/min), and td is the retention time for Blue dextran without the column in the system.

[4] = recombinant human insulin receptor-exon 11, SPA
[5] = LiChrosorb RP18, 40° C., pH 7.3, HI = 1

Sequence of human insulin receptor (P06213 28-746 isoform P06213-2 limits assumed): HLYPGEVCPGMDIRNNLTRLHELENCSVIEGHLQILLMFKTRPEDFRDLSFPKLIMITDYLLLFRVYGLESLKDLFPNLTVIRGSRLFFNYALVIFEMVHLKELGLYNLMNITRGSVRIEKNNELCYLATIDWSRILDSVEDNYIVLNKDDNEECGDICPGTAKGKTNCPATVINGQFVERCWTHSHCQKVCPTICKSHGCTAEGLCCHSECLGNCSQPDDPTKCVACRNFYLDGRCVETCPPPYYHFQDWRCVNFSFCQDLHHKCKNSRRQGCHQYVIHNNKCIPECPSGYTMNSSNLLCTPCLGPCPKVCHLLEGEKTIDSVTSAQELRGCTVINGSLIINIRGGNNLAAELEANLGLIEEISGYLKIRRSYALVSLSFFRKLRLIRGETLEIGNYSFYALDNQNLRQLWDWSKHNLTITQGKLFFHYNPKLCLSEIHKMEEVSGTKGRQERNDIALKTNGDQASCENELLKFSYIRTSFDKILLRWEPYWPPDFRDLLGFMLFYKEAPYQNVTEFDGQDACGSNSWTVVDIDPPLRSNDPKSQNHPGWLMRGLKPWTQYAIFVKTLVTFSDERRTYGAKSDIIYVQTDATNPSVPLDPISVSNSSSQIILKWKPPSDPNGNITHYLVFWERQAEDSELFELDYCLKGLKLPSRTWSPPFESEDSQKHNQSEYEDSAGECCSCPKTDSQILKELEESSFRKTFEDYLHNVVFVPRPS
Sequence of human insulin receptor (P06213 763-1382 partner limits assumed): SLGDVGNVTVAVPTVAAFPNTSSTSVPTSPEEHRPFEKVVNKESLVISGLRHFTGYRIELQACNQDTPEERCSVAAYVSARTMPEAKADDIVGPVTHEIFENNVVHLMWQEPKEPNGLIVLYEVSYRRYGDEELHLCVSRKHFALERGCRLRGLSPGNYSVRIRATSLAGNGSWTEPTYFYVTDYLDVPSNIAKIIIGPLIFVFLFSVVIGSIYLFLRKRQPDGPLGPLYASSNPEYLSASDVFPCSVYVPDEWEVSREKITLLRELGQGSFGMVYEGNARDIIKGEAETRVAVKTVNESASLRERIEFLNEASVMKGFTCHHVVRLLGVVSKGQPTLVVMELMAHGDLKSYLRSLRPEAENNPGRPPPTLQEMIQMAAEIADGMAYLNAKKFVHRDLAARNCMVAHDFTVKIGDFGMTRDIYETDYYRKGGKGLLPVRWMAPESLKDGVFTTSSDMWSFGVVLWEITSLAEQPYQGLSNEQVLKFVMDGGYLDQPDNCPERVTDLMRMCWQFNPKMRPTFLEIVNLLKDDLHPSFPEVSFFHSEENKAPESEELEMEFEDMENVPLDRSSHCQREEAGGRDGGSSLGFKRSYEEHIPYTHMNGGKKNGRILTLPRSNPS

Substance	Insulin receptor affinity relative to human insulin ([1]; class symbol)	Insulin receptor affinity relative to human insulin [1, 4]	Hydrophobicity relative to human insulin [2, 5]	Hydrophobicity relative to human insulin ([2]; class symbol, HI = 1)	Self-association: Kav ([3]; SEC Superose 6, 37° C., 0.6 mM derivative, 2.1 Zn2+/hexamer, 16 mM phenol, pH 7.8, one value per peak)	Self-association: % area of peak ([3]; area of the peak whose Kav is in the cell above)	Self-association: Kav ([3]; class symbol)
N^εB29-(3-(3-{4-[3-(7-carboxyheptanoylamino)propoxy]butoxy}propylcarbamoyl)-propionyl-γ-glutamylamide) desB30 human Insulin [Example 11]	++ (5-50%: ++)	43%	0.435	+++ (k'rel < 1: +++)	–	–	–
N^εB29-ω-carboxy-undecanoyl-δ-amino-butanoyl desB30 human insulin [Example 13]	+++ (>50%: +++)	59%	0.552	+++ (k'rel < 1: +++)	0.69	(100%)	+ (Kav ≧ 0.55: +)
N^εB29-ω-carboxy-pentadecanoyl-γ-L-aspartylamide desB30 human insulin [Example 6]	++ (5-50%: ++)	33%	–	–	–	–	–
